The values below come from paper doi:10.1101/2020.05.03.074682.

The test concerns the target biotinylated C-terminal cytosolic tail of GCS. As to the kind of experiment: ITC. In general terms: Isothermal titration calorimetry measures the heat released or taken up as one component is titrated into another.

Substance “GRASP domain of GRASP55 (recombinant, used for ITC) (domain or fragment)” yielded a Kd of 2 µM.

As a reminder, the Kd is the equilibrium constant for the complex coming apart. Lower therefore signals tighter binding.
